Measured values reported in patent publication US20250282874A1 (SUZHOU TRANSCENTA THERAPEUTICS, published 2025).
Where two headings read alike, the source gives them in different places. Values belong to the binder of their own block, whether it stands above or below them.

Assays:
human PD-L1-His = molecular target: T1, human PD-L1-His (human, UniProt Q9NZQ7 19-238, limits assumed); assay: ELISA, human PD-L1-His coated, anti-human IgG-HRP, OD450
T1 construct: not shown: His tag

human PD-L1-Fc [1] = molecular target: T2, human PD-L1-Fc (human, UniProt Q9NZQ7 19-239); assay: BLI; PD-L1-Fc loaded on the sensor, scFv in solution
T2 construct: also called hPD-L1-Fc; human PD-L1-Fc (Sino Biological, 70110-D02H); not shown: Fc part

human PD-L1-Fc [2] = molecular target: T2, human PD-L1-Fc; assay: as above; remark: listed apart in the source
human PD-L1-Fc [3] = molecular target: T2, human PD-L1-Fc; assay: as above; remark: listed apart in the source
human PD-L1-Fc [4] = molecular target: T2, human PD-L1-Fc; assay: BLI; against H-CDR2-WT (G55A)
human PD-L1-Fc [5] = molecular target: T2, human PD-L1-Fc; assay: BLI; against L-CDR1-WT
human PD-L1-Fc [6] = molecular target: T2, human PD-L1-Fc; assay: BLI; against L-CDR2-WT

B1: Hu4B6_HbLa (antibody, human IgG1, V domains shown)
VH: QVQLVQSGAEVKKPGASVKVSCKASGYTFTDYYMNWVRQAPGQGLEWMGDINPNNGGTSYNHKFKGRVTVTVDTSISTAYMELSRLRSDDTAVYYCVKWGDGPFAYWGQGTLVTVSS
VL: DIQMTQSPSSLSASVGDRVTITCKASQNVGAAVAWYQQKPGKAPKLLIYSASNRYTGVPSRFSGSGSGTDFTLTISSLQPEDIATYYCQQYSNYPTFGQGTKLEIK
EC50 (human PD-L1-His): 2.38 nM

B9: 4B6-HgLa scFv (wild-type sequence for affinity maturation) (scFv)
scFv: DIQMTQSPSSLSASVGDRVTITCKASQNVGAAVAWYQQKPGKAPKLLIYSASNRYTGVPSRFSGSGSGTDFTLTISSLQPEDIATYYCQQYSNYPTFGQGTKLEIKGGGGSGGGGSGGGGSQVQLVQSGAEVKKPGASVKVSCKASGYVFTDYYMNWVRQAPGQSLEWMGDINPNNAGTSYNHKFKGRVTVTVDKSISTAYMELSRLRSDDTAVYYCVKWGDGPFAYWGQGTLVTVSS
notes: written VL-linker-VH; also called L-CDR1-WT; L-CDR2-WT
Kd (human PD-L1-Fc [1]): 28.2 nM
kon (human PD-L1-Fc [1]): 35800 M⁻¹ s⁻¹
Kd (human PD-L1-Fc [2]): 27.6 nM
kon (human PD-L1-Fc [2]): 38100 M⁻¹ s⁻¹
Kd (human PD-L1-Fc [3]): 26.7 nM
kon (human PD-L1-Fc [3]): 46300 M⁻¹ s⁻¹

B10: 4B6 scFv variant H-CDR2-5 (scFv)
scFv: DIQMTQSPSSLSASVGDRVTITCKASQNVGAAVAWYQQKPGKAPKLLIYSASNRYTGVPSRFSGSGSGTDFTLTISSLQPEDIATYYCQQYSNYPTFGQGTKLEIKGGGGSGGGGSGGGGSQVQLVQSGAEVKKPGASVKVSCKASGYVFTDYYMNWVRQAPGQSLEWMGDINPNNAQTVYNHKFKGRVTVTVDKSISTAYMELSRLRSDDTAVYYCVKWGDGPFAYWGQGTLVTVSS
notes: also called 4B6-H-CDR2-5
Fold increase (human PD-L1-Fc [4]): 11.1 fold
Kd (human PD-L1-Fc [3]): 2.4 nM
kon (human PD-L1-Fc [3]): 102000 M⁻¹ s⁻¹

B11: 4B6 scFv variant L-CDR1-3 (scFv)
scFv: DIQMTQSPSSLSASVGDRVTITCKASQNVKGAVAWYQQKPGKAPKLLIYSASNRYTGVPSRFSGSGSGTDFTLTISSLQPEDIATYYCQQYSNYPTFGQGTKLEIKGGGGSGGGGSGGGGSQVQLVQSGAEVKKPGASVKVSCKASGYVFTDYYMNWVRQAPGQSLEWMGDINPNNAGTSYNHKFKGRVTVTVDKSISTAYMELSRLRSDDTAVYYCVKWGDGPFAYWGQGTLVTVSS
notes: also called 4B6-L-CDR1-3
Kd (human PD-L1-Fc [1]): 2.78 nM
kon (human PD-L1-Fc [1]): 91100 M⁻¹ s⁻¹
Fold increase (human PD-L1-Fc [5]): 10.1 fold

B12: 4B6 scFv variant L-CDR2-1 (scFv)
scFv: DIQMTQSPSSLSASVGDRVTITCKASQNVGAAVAWYQQKPGKAPKLLIYSNSHRYTGVPSRFSGSGSGTDFTLTISSLQPEDIATYYCQQYSNYPTFGQGTKLEIKGGGGSGGGGSGGGGSQVQLVQSGAEVKKPGASVKVSCKASGYVFTDYYMNWVRQAPGQSLEWMGDINPNNAGTSYNHKFKGRVTVTVDKSISTAYMELSRLRSDDTAVYYCVKWGDGPFAYWGQGTLVTVSS
notes: also called 4B6-L-CDR2-1
Kd (human PD-L1-Fc [2]): 8.06 nM
kon (human PD-L1-Fc [2]): 46800 M⁻¹ s⁻¹
Fold increase (human PD-L1-Fc [6]): 3.42 fold

B13: 4B6 scFv variant L-CDR2-2 (scFv)
scFv: DIQMTQSPSSLSASVGDRVTITCKASQNVGAAVAWYQQKPGKAPKLLIYSRSVRYTGVPSRFSGSGSGTDFTLTISSLQPEDIATYYCQQYSNYPTFGQGTKLEIKGGGGSGGGGSGGGGSQVQLVQSGAEVKKPGASVKVSCKASGYVFTDYYMNWVRQAPGQSLEWMGDINPNNAGTSYNHKFKGRVTVTVDKSISTAYMELSRLRSDDTAVYYCVKWGDGPFAYWGQGTLVTVSS
notes: also called 4B6-L-CDR2-2
Kd (human PD-L1-Fc [2]): 3.34 nM
kon (human PD-L1-Fc [2]): 162000 M⁻¹ s⁻¹
Fold increase (human PD-L1-Fc [6]): 8.26 fold

B14: 4B6 scFv variant L-CDR1-2 (scFv)
scFv: DIQMTQSPSSLSASVGDRVTITCKASQNVPAAVAWYQQKPGKAPKLLIYSASNRYTGVPSRFSGSGSGTDFTLTISSLQPEDIATYYCQQYSNYPTFGQGTKLEIKGGGGSGGGGSGGGGSQVQLVQSGAEVKKPGASVKVSCKASGYVFTDYYMNWVRQAPGQSLEWMGDINPNNAGTSYNHKFKGRVTVTVDKSISTAYMELSRLRSDDTAVYYCVKWGDGPFAYWGQGTLVTVSS
notes: also called 4B6-L-CDR1-2
Kd (human PD-L1-Fc [1]): 5.68 nM
kon (human PD-L1-Fc [1]): 271000 M⁻¹ s⁻¹
Fold increase (human PD-L1-Fc [5]): 4.96 fold

B15: 4B6 scFv variant H-CDR2-2 (scFv)
scFv: DIQMTQSPSSLSASVGDRVTITCKASQNVGAAVAWYQQKPGKAPKLLIYSASNRYTGVPSRFSGSGSGTDFTLTISSLQPEDIATYYCQQYSNYPTFGQGTKLEIKGGGGSGGGGSGGGGSQVQLVQSGAEVKKPGASVKVSCKASGYVFTDYYMNWVRQAPGQSLEWMGDINPNNAQTQYNHKFKGRVTVTVDKSISTAYMELSRLRSDDTAVYYCVKWGDGPFAYWGQGTLVTVSS
notes: also called 4B6-H-CDR2-2
Fold increase (human PD-L1-Fc [4]): 11 fold
Kd (human PD-L1-Fc [3]): 2.42 nM
kon (human PD-L1-Fc [3]): 101000 M⁻¹ s⁻¹

B16: 4B6 scFv variant L-CDR1-1 (scFv)
scFv: DIQMTQSPSSLSASVGDRVTITCKASQNVGAIVAWYQQKPGKAPKLLIYSASNRYTGVPSRFSGSGSGTDFTLTISSLQPEDIATYYCQQYSNYPTFGQGTKLEIKGGGGSGGGGSGGGGSQVQLVQSGAEVKKPGASVKVSCKASGYVFTDYYMNWVRQAPGQSLEWMGDINPNNAGTSYNHKFKGRVTVTVDKSISTAYMELSRLRSDDTAVYYCVKWGDGPFAYWGQGTLVTVSS
notes: also called 4B6-L-CDR1-1
Kd (human PD-L1-Fc [1]): 6.91 nM
kon (human PD-L1-Fc [1]): 41200 M⁻¹ s⁻¹
Fold increase (human PD-L1-Fc [5]): 4.08 fold

B17: 4B6 scFv variant H-CDR2-3 (scFv)
scFv: DIQMTQSPSSLSASVGDRVTITCKASQNVGAAVAWYQQKPGKAPKLLIYSASNRYTGVPSRFSGSGSGTDFTLTISSLQPEDIATYYCQQYSNYPTFGQGTKLEIKGGGGSGGGGSGGGGSQVQLVQSGAEVKKPGASVKVSCKASGYVFTDYYMNWVRQAPGQSLEWMGDINPNNAETLYNHKFKGRVTVTVDKSISTAYMELSRLRSDDTAVYYCVKWGDGPFAYWGQGTLVTVSS
notes: also called 4B6-H-CDR2-3
Fold increase (human PD-L1-Fc [4]): 11 fold
Kd (human PD-L1-Fc [3]): 2.43 nM
kon (human PD-L1-Fc [3]): 116000 M⁻¹ s⁻¹

B18: 4B6 scFv variant H-CDR2-4 (scFv)
scFv: DIQMTQSPSSLSASVGDRVTITCKASQNVGAAVAWYQQKPGKAPKLLIYSASNRYTGVPSRFSGSGSGTDFTLTISSLQPEDIATYYCQQYSNYPTFGQGTKLEIKGGGGSGGGGSGGGGSQVQLVQSGAEVKKPGASVKVSCKASGYVFTDYYMNWVRQAPGQSLEWMGDINPNNGLTSYNHKFKGRVTVTVDKSISTAYMELSRLRSDDTAVYYCVKWGDGPFAYWGQGTLVTVSS
notes: also called 4B6-H-CDR2-4
Fold increase (human PD-L1-Fc [4]): 6.03 fold
Kd (human PD-L1-Fc [3]): 4.43 nM
kon (human PD-L1-Fc [3]): 117000 M⁻¹ s⁻¹

B19: 4B6 scFv variant H-CDR2-1 (scFv)
scFv: DIQMTQSPSSLSASVGDRVTITCKASQNVGAAVAWYQQKPGKAPKLLIYSASNRYTGVPSRFSGSGSGTDFTLTISSLQPEDIATYYCQQYSNYPTFGQGTKLEIKGGGGSGGGGSGGGGSQVQLVQSGAEVKKPGASVKVSCKASGYVFTDYYMNWVRQAPGQSLEWMGDINPNNADTMYNHKFKGRVTVTVDKSISTAYMELSRLRSDDTAVYYCVKWGDGPFAYWGQGTLVTVSS
notes: also called 4B6-H-CDR2-1
Fold increase (human PD-L1-Fc [4]): 7.6 fold
Kd (human PD-L1-Fc [3]): 3.52 nM
kon (human PD-L1-Fc [3]): 141000 M⁻¹ s⁻¹

The next lines start with the values.

EC50 (human PD-L1-His): 3.44 nM
B2: Hu4B6_HcLb (antibody, human IgG1, V domains shown)
VH: QVQLVQSGAEVKKPGASVKVSCKASGYVFTDYYMNWVRQAPGQGLEWMGDINPNNGGTSYNHKFKGRVTVTVDKSISTAYMELSRLRSDDTAVYYCARWGDGPFAYWGQGTLVTVSS
VL: DIQMTQSPSSLSASVGDRVTITCKASQNVGAAVAWYQQKPGKSPKLLIYSASNRYTGVPDRFSGSGSGTDFTLTISSLQPEDIATYYCQQYSNYPTFGQGTKLEIK

EC50 (human PD-L1-His): 6.26 nM
B3: Hu4B6_HaLb (antibody, human IgG1, V domains shown)
VH: QVQLVQSGAEVKKPGASVKVSCKASGYTFTDYYMNWVRQAPGQGLEWMGDINPNNGGTSYNHKFKGRVTVTVDTSISTAYMELSRLRSDDTAVYYCARWGDGPFAYWGQGTLVTVSS
VL: DIQMTQSPSSLSASVGDRVTITCKASQNVGAAVAWYQQKPGKSPKLLIYSASNRYTGVPDRFSGSGSGTDFTLTISSLQPEDIATYYCQQYSNYPTFGQGTKLEIK

EC50 (human PD-L1-His): 2.81 nM
B4: Hu4B6_HbLb (antibody, human IgG1, V domains shown)
VH: QVQLVQSGAEVKKPGASVKVSCKASGYTFTDYYMNWVRQAPGQGLEWMGDINPNNGGTSYNHKFKGRVTVTVDTSISTAYMELSRLRSDDTAVYYCVKWGDGPFAYWGQGTLVTVSS
VL: DIQMTQSPSSLSASVGDRVTITCKASQNVGAAVAWYQQKPGKSPKLLIYSASNRYTGVPDRFSGSGSGTDFTLTISSLQPEDIATYYCQQYSNYPTFGQGTKLEIK

EC50 (human PD-L1-His): 5.16 nM
B5: Hu4B6_HaLa (antibody, human IgG1, V domains shown)
VH: QVQLVQSGAEVKKPGASVKVSCKASGYTFTDYYMNWVRQAPGQGLEWMGDINPNNGGTSYNHKFKGRVTVTVDTSISTAYMELSRLRSDDTAVYYCARWGDGPFAYWGQGTLVTVSS
VL: DIQMTQSPSSLSASVGDRVTITCKASQNVGAAVAWYQQKPGKAPKLLIYSASNRYTGVPSRFSGSGSGTDFTLTISSLQPEDIATYYCQQYSNYPTFGQGTKLEIK

EC50 (human PD-L1-His): 5.74 nM
B6: Hu4B6_HcLa (antibody, human IgG1, V domains shown)
VH: QVQLVQSGAEVKKPGASVKVSCKASGYVFTDYYMNWVRQAPGQGLEWMGDINPNNGGTSYNHKFKGRVTVTVDKSISTAYMELSRLRSDDTAVYYCARWGDGPFAYWGQGTLVTVSS
VL: DIQMTQSPSSLSASVGDRVTITCKASQNVGAAVAWYQQKPGKAPKLLIYSASNRYTGVPSRFSGSGSGTDFTLTISSLQPEDIATYYCQQYSNYPTFGQGTKLEIK

EC50 (human PD-L1-His): 1.47 nM
B7: Hu4B6_HdLb (antibody, human IgG1, V domains shown)
VH: QVQLVQSGAEVKKPGASVKVSCKASGYVFTDYYMNWVRQAPGQSLEWMGDINPNNGGTSYNHKFKGRVTVTVDKSISTAYMELSRLRSDDTAVYYCVKWGDGPFAYWGQGTLVTVSS
VL: DIQMTQSPSSLSASVGDRVTITCKASQNVGAAVAWYQQKPGKSPKLLIYSASNRYTGVPDRFSGSGSGTDFTLTISSLQPEDIATYYCQQYSNYPTFGQGTKLEIK

EC50 (human PD-L1-His): 2.05 nM
B8: Chimeri 4B6 (antibody, V domains shown)
VH: EVQLQQSGPELVKPGASVKISCKASGYVFTDYYMNWVKQSHGKSLEWIGDINPNNGGTSYNHKFKGKATVTVDKSSRTAYMELLSLTSEDSAVYYCVKWGDGPFAYWGQGTLVTVSA
VL: DIVMTQSQKFMSTSVGDRVSITCKASQNVGAAVAWYQQKPGQSPKLLIYSASNRYTGVPDRFTGSGSGTDFTLTISNMQSEDLADYFCQQYSNYPTFGSGTKLGIK
notes: spelling as printed; also called chimeric 4B6; mouse/chimeric antibody 4B6
